From publication PMC4503747, “The Gcn2 Regulator Yih1 Interacts with the Cyclin Dependent Kinase Cdc28 and Promotes Cell Cycle Progression through G2/M in Budding Yeast” (PLoS ONE, 2015) come the findings set out here.

In this experiment the target is T1, GST-Yih1*H2 (E87A and D90A in helix H2 of the RWD domain) (S. cerevisiae, UniProt P25637 1-258, E87A | D90A).
T1 construct: Yih1, S. cerevisiae, with alanine substitutions of Glu-87 and Asp-90;; source: S. cerevisiae yih1Δ strain MSY-Y2, galactose-inducible promoter, in whole cell extract
T1 sequence (looked up): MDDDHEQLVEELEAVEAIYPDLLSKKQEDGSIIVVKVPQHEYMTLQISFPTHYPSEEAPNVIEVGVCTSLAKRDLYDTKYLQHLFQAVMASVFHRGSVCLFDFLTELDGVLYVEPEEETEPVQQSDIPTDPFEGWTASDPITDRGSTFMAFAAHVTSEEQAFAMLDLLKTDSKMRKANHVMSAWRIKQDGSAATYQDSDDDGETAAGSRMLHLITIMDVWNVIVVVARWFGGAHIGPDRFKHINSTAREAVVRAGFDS
As to the kind of experiment: pull-down; in vivo GST pull-down: GST fusions overexpressed in yeast from a galactose-inducible promoter (yih1Δ strains; gcn1Δ strain H2556 for the fragments; also cells arrested in G1 with α-factor and released), WCE (1-2 mg) on glutathione beads, immunoblot for endogenous proteins. Conditions: partners not purified.

B1: Cdc28 (endogenous, yeast whole cell extract) (natural protein)
chain: not shown
notes: Cdc28, cyclin-dependent kinase of S. cerevisiae, endogenous; In the extract Cdc28 may be in complexes with cyclins and other regulators; also called endogenous Cdc28; native Cdc28; source: endogenous, S. cerevisiae whole cell extract
Consider B1, for which the “fold increase of co-precipitated Cdc28 against wild type GST-Yih1” value is about 5 fold.
